Laboratory results from PMC6149798.

Legend:
[1] = target: 9His-rsLAAO1 (L-amino acid oxidase from Rhizoctonia solani with nine histidine residues as affinity tag) (Rhizoctonia solani); assay: SEC; native 9His-rsLAAO1 on calibrated Superdex 200 Increase 10/300 GL, 50 mM NaH2PO4 pH 8.2, 300 mM NaCl, 0.3 mL/min; without SDS
[2] = target: 9His-rsLAAO1 (L-amino acid oxidase from Rhizoctonia solani with nine histidine residues as affinity tag) (Rhizoctonia solani); assay: SEC; 9His-rsLAAO1 activated with 1.5 mM SDS, added to the protein solution before chromatography; Superdex 200 Increase 10/300 GL, 50 mM NaH2PO4 pH 8.2, 300 mM NaCl

- stoichiometry N [1]: 2
- stoichiometry N [2]: 2
Substance: 9His-rsLAAO1 (L-amino acid oxidase from Rhizoctonia solani with nine histidine residues as affinity tag) (enzyme)
